In patent US8691960B2, “Oxidoreductases for enantioselective reactions” (Duke University, priority 2012, dated 2014):

Columns and labels:
Assay type in all cases: biochemical
[1] = NADH oxidation rate of purified HIDH enzymes with 2-oxoadipate (fluorescence / UV 340 nm)
Protocol: (§1) NADH, 2-oxoadipate, 2-oxoglutarate, 2-heptandioate, and MgCl2 were from Sigma. Standard reaction mixes contained 15 mM 2-oxoadipate, 100 μM NADH, and a reaction buffer with final concentrations of 20 mM MgCl2 and 500 mM HEPES, pH 7.3. NADH oxidation was monitored by the decrease in fluorescence with excitation of 340 nm and emission of 450 nm on a PolarSTAR Optima plate reader (BMG Labtech). Fluorescence monitored reactions were carried out in 10-μL volumes in a 384-well black microplate (Greiner 788076) covered with clear optical film. The levels of fluorescence were converted to NADH concentrations based on standards of NADH in reaction buffer containing BSA. Reactions with high amounts of NADH were monitored by the UV absorbance of NADH at 340 nm in 40-μL reaction volumes in clear 96-well plates.
(§2) Reaction rates are NADH oxidation per unit time per unit of purified enzyme or crude lysate and 1 Unit (U) is 1 μmolNADH min^−1 mgenzyme^−1. Rates are initial rates calculated by least squares linear regression on the first 10 minutes of the reaction. For KM determination, concentrations of substrate/cofactors at least 5×-higher than the KM were used, while the species of interest was varied in concentration; substrate/cofactor concentrations: 500 μM NADH; 15 mM 2-oxoadipate; 20 mM MgCl2. Reported α-hydroxyadipate (2-hydroxy adpic acid) Vmax values were obtained from 2-oxoadipate KM determination experiments. Michaelis-Menten KM and Vmax parameters were estimated by fitting data to a curve using nonlinear regression in GraphPad Prism 5.0 (GraphPad Software, La Jolla, Calif.).
(§3) Assays were performed with 40 ng/μL enzyme, 15 mM 2-oxoadipate, 100 μM NADH, 20 mM MgCl2 and 100 mM HEPES, pH 7.3 in 10 or 20 μL volumes in 384-well black microplates. NADH concentration was monitored by the decrease in fluorescence (excitation wavelength: 340 nm; emission wavelength: 450 nm) on a fluorescent plate reader. The fluorescence intensities were converted to NADH concentrations based on NADH standards. Reactions with high amounts of NADH (>300 μM) were monitored by the UV absorbance of NADH at 340 nm in a 40 μL reaction volume in a clear 96-well plate on the same plate reader. Reactions with ScHIDH were carried out at 25° C. and reactions with TtHIDH were carried out at 45° C. Reported rates are initial rates from the first 10 minutes of reaction. For KM determination, concentrations of substrate at least 5×-higher than the KM were used (for NADH, 500 μM; for 2-oxoadipate, 15 mM) while the substrate of interest was varied in concentration. KM and Vmax were estimated by fitting data to equation (1) using nonlinear regression, where x is substrate concentration and y is the rate. y=Vmax·x/KM+x (1) Rate data for ScHIDH-R143C, -R143H, and -R143K are summarized in Table 3.

[2] = NADH oxidation rate of purified HIDH mutants with 2-oxoglutarate as substrate; conditions: ScHIDH-R143H
Protocol: as §1
(§4) Reaction rates are NADH oxidation per unit time per unit of purified enzyme or crude lysate and 1 Unit (U) is 1 μmolNADH min^−1 mgenzyme^−1. Rates are initial rates calculated by least squares linear regression on the first 10 minutes of the reaction. For KM determination, concentrations of substrate/cofactors at least 5×-higher than the KM were used, while the species of interest was varied in concentration; substrate/cofactor concentrations: 500 μM NADH; 15 mM 2-oxoadipate; 20 mM MgCl2. […]

[3] = NADH oxidation rate of purified ScHIDH-R143H with 2-oxoheptanedioic acid as substrate
Protocol: as §1, §4

[4] = NADH oxidation with 2-oxoadipate plus CO2 added as NaHCO3 (reductive carboxylation); conditions: up to 60 mM NaHCO3
Protocol: as §1, §2

[5] = Enantiospecific LC-MS/MS quantification of (R)- and (S)-2-hydroxyadipate product
Protocol: Quantitative, enantiospecific LC-MS/MS was performed based on the procedure described for 2-hydroxyglutarate. Jin et al., PLoS one 6, e16812: 1-8 (2011); Struys, et al., Clin. Chem. 50: 1391-1395 (2004). To 20 μL of reaction mix, 2 μL of 130 μg/mL of a racemic mixture of [3,3,4,4-^2H4]-2-hydroxyglutarate (internal standard) in water was added and the mixture dried by vacuum centrifuge (50° C., 15 min). The dry residue was treated with 50 mg/mL freshly prepared diacetyl-L-tartaric anhydride (Sigma) in dichloromethane/glacial acetic acid (4:1 by volume) and heated (75° C., 30 min). After drying (50° C., 15 min) the residue was dissolved in 100 μL of LC mobile phase A (see below) for analysis. An Agilent 1200 series HPLC (Santa Clara, Calif.) was used for liquid chromatography (LC) and a Sciex/Applied Biosystems API 3200 QTrap (Carlsbad, Calif.) was used for triple quadrupole mass spectrometry (MS/MS). Mobile phase A: water, 3% acetonitrile, 280 μL ammonium hydroxide (^˜25%), pH adjusted to 3.6 with formic acid (^˜98%). Mobile phase B: methanol. Analytical column: Kinetex C-18, 150×4.6 mm, 2.6 μm, and SafeGuard C-18 4×3 mm guard-column from Phenomenex (Torrance, Calif.). Column temperature: 45° C. Elution gradient at 1 mL/min flow rate: 0-1 min 0% B, 1-2 min 0-100% B, 2-3.5 min 100% B, 3.5-4 min 100-0% B, 4-10 min 0% B. Injection volume: 10 μL. Q1/Q3 (m/z) transitions were monitored: 377/161, 2-hydroxyadipate (2HA) and 367/151, [3,3,4,4-^2H4]-2-hydroxyglutarate (2HG-d4). To calibrate, 0, 0.16, 0.54, 1.8, 6, and 20 μg/mL 2-hydroxyadipate (Sigma), synthesized as described above, was analyzed in reaction buffer. (R)- and (S)-enantiomers were discriminated based on time of elution from the HPLC column, using the relative elution time for (R)-2-hydroxyglutarate compared to the racemic mixture of 2-hydroxyglutarate described previously to identify the (R)-2-hydroxyadipate enantiomer. Jin et al., PLoS one 6, e16812: 1-8 (2011). Standards were analyzed alongside experimental samples. Accuracy acceptance criteria were 85% for all but the lowest level (0.16 μg/mL, 80%).

[6] = Kinetic characterization of ScHIDH mutants: KM 2-oxoadipate and Vmax
Protocol: as §2, §3

[7] = Kinetic characterization of ScHIDH mutants: KM NADH
Protocol: as §2, §3

[8] = Magnesium dependence of ScHIDH-R143H
Protocol: as §3
ScHIDH-R143H activity was assayed at various MgCl2 concentrations under the standard reaction conditions described in Example 11. The rate is relative to the rate at 20 mM MgCl2. […]

[9] = pH dependence of ScHIDH-R143H
Protocol: as §3
ScHIDH-R143H activity was assayed in HEPES buffer at various pH under the standard reaction conditions described in Example 11, above. The rate is relative to the rate at pH 7.4. […]

[10] = ScHIDH, initially 2 mM NADH and 2 mM 2-oxoadipate, 10 h

B1: ScHIDH-R143H: Saccharomyces cerevisiae homoisocitrate dehydrogenase R143H mutant, an (R)-2-hydroxyadipate dehydrogenase (protein)
chain: MFRSVATRLSACRGLASNAARKSLTIGLIPGDGIGKEVIPAGKQVLENLNSKHGLSFNFIDLYAGFQTFQETGKALPDETVKVLKEQCQGALFGAVQSPTTKVEGYSSPIVALRREMGLFANVRPVKSVEGEKGKPIDMVIVHENTEDLYIKIEKTYIDKATGTRVADATKRISEIATRRIATIALDIALKRLQTRGQATLTVTHKSNVLSQSDGLFREICKEVYESNKDKYGQIKYNEQIVDSMVYRLFREPQCFDVIVAPNLYGDILSDGAAALVGSLGVVPSANVGPEIVIGEPCHGSAPDIAGKGIANPIATIRSTALMLEFLGHNEAAQDIYKAVDANLREGSIKTPDLGGKASTQQVVDDVLSRL
modifications: ScHIDH R143H polypeptide
notes: Saccharomyces cerevisiae homoisocitrate dehydrogenase R143H mutant, an (R)-2-hydroxyadipate dehydrogenase
Q: What does the source list for B1?
A: rate of NADH oxidation in the presence of 2-oxoadipate ([1]; ScHIDH, 15 mM 2-oxoadipate, 100 μM NADH, 0.4 μg purified enzyme): 0.0096±0.000014 U; decrease of NADH concentration after 10 h compared to a buffer control [1, 10]: 0.62 mM; NADH oxidation rate, reaction containing no substrate ([1]; ScHIDH-R143H, no substrate): < 0.001 U; NADH oxidation rate in the presence of 15 mM 2-oxoglutarate [2]: < 0.001 U; NADH oxidation rate in the presence of 15 mM 2-oxoheptanedioic acid [3]: < 0.001 U; stimulation by addition of NaHCO3 [4]: not stimulated; concentration of (R)-2-hydroxyadipate after 10 h [5, 10]: 0.97 mM; Enantiomeric Excess ([5]; Table 3, (R)-2-hydroxyadipate product): > 99.1%; Km ([6]; Table 3, 40 ng/μL enzyme, 500 μM NADH, 20 mM MgCl2, pH 7.3, 25° C.): 2000 µM; Vmax ([6]; Table 3, from 2-oxoadipate KM experiments): 0.036 µmol/min/mg; Km ([6]; purified enzyme): 1400 ± 250 µM; maximal velocity (Vmax) ([6]; purified enzyme): 0.020±0.0027 U; Km ([7]; Table 3, 15 mM 2-oxoadipate, 20 mM MgCl2, pH 7.3, 25° C.): 88 µM; Km ([7]; purified enzyme): 85 ± 21 µM; Km ([8]; Table 3, read-out: KM MgCl2): 1200 µM; Km ([8]; various MgCl2 concentrations, standard conditions, read-out: KM for MgCl2): 1100 µM; pH optimum ([9]; HEPES buffer at various pH, standard conditions): 7.4; pH optimum ([9]; Table 3, HEPES buffer): 7.4
